In paper PMC5682286:

What was measured:
[1] = biological target: tES-HRPc, truncated horseradish peroxidase fused to the C-terminus of a histidine-tagged tES subunit (Archaeoglobus fulgidus | horseradish) (UniProt O29424); assay: pull-down + SEC; tES(+) and His-tagged tES-POI coexpressed in E. coli BL21(DE3); Ni-NTA by the His tag of the fusion subunit, then SEC (25 mM Tris-HCl, pH 8); ratio by gel densitometry of purified fractions
[2] = biological target: tES-rLuc, Renilla luciferase fused to the C-terminus of a histidine-tagged tES subunit (Archaeoglobus fulgidus | Renilla) (UniProt O29424); assay: as above
[3] = biological target: tES-GFPuv, GFPuv fused to the C-terminus of a histidine-tagged tES subunit (Archaeoglobus fulgidus | not stated) (UniProt O29424); assay: as above
[4] = biological target: tES-GFPuv, GFPuv fused to the C-terminus of a histidine-tagged tES subunit (Archaeoglobus fulgidus | not stated) (UniProt O29424)

stoichiometry N (tES subunits per tES-POI fusion subunit) [1] | stoichiometry N (tES subunits per tES-POI fusion subunit) [2] | stoichiometry N (tES subunits per tES-POI fusion subunit) [3] | GFPuv fluorescence after in vitro folding; molar ratios of tES(+)F116H subunits to tES-GFPuv from 0:1 to 90:1, highest at 90:1 [4] [fold] | Substance
19 | 20 | 32 |  | tES(+) thermostable exoshell subunit, net positive cavity (from UniProt O29424 1-164)
 |  |  | 100 | tES(+)F116H, pH-titratable exoshell subunit (from UniProt O29424 1-164)
